pKd: −log10 of the molar value.
Columns and labels:
[1] = molecular target: FITC-labeled DENV2 NS5 NLS_(C-term) peptide (dengue virus serotype 2 (DENV2)); experiment: fluorescence polarisation
[2] = molecular target: FITC-labeled DENV3 NS5 NLS_(C-term) peptide (dengue virus serotype 3 (DENV3)); experiment: fluorescence polarisation

human IMPα7 lacking the IMPβ-binding domain (IMPαΔIBB), sequence (O60684 73-536, stated change not applied): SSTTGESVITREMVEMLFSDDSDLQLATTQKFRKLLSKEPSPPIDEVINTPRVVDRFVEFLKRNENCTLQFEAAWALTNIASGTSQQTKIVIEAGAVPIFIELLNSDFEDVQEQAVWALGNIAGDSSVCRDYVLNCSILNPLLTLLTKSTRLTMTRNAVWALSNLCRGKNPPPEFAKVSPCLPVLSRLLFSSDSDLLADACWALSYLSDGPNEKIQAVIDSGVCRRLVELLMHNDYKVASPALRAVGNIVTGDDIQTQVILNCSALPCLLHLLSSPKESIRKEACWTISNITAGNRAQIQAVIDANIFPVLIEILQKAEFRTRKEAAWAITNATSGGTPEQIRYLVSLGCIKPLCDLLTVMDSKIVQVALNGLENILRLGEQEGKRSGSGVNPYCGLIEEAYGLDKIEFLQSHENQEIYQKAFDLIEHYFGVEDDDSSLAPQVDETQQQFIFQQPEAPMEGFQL
human IMPα3 lacking the IMPβ-binding domain (IMPαΔIBB), sequence (O00629 64-521, stated change not applied): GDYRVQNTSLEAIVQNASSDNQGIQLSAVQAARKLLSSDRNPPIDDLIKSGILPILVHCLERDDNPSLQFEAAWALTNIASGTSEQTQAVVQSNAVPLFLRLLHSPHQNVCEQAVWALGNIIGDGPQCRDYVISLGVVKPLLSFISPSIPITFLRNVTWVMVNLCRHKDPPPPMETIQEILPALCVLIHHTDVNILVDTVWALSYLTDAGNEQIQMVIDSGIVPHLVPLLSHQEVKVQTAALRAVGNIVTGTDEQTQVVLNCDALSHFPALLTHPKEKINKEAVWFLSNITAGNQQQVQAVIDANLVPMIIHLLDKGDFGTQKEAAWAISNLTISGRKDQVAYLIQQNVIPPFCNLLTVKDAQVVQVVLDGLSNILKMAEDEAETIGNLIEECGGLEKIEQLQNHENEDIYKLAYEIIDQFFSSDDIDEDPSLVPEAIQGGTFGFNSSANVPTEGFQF

Substance | pKd [1] | pKd [2]
human IMPα1 lacking the IMPβ-binding domain (IMPαΔIBB) (from UniProt P52292 70-529) (domain or fragment) | 7.05 | 6.85
human IMPα7 lacking the IMPβ-binding domain (IMPαΔIBB) (from UniProt O60684 73-536) (domain or fragment) | 6.74 | 6.72
human IMPα3 lacking the IMPβ-binding domain (IMPαΔIBB) (from UniProt O00629 64-521) (domain or fragment) | 7.10 | 6.82

Reference: PMC11184549
